T1: LI-cadherin C-terminally tagged with cyan (LI-CFP) or yellow (LI-YFP) fluorescent protein (UniProt Q9R100 26-827)
T1 construct: LI-cadherin (cadherin-17); Two differently tagged copies of the same protein (CFP donor, YFP acceptor), co-expressed for FRET; In the control with EGFR-CFP only the YFP-tagged copy was present; also called LI-cadherin-CFP fusion protein; LI-cadherin-YFP fusion protein; source: HEK293, transfected (FuGENE-6), in living cells; not shown: CFP (on one copy) or YFP (on the other copy), C-terminal, kept
T1 sequence (looked up): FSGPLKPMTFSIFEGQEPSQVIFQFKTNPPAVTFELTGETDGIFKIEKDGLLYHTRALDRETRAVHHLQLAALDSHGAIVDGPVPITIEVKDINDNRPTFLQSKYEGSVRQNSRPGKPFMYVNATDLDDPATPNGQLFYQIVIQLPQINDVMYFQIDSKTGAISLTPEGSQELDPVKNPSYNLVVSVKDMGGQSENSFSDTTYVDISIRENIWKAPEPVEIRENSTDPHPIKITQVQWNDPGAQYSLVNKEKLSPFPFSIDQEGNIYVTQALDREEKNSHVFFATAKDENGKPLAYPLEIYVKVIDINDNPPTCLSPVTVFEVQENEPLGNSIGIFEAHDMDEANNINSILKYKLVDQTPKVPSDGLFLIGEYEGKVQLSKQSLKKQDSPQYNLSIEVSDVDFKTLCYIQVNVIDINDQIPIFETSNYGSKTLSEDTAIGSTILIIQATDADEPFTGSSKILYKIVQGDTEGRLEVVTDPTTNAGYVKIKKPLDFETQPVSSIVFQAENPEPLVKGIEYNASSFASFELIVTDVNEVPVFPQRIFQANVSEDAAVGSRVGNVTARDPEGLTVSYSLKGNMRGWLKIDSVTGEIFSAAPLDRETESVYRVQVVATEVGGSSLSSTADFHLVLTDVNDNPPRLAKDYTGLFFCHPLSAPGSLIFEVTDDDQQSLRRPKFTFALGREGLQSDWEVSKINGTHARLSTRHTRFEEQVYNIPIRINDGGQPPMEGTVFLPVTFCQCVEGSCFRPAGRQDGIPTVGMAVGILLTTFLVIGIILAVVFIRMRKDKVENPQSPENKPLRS


Legend:
[1] = molecular target: LI-cadherin ECD (Homo sapiens) (UniProt Q12864); settings: cited from earlier work
[2] = molecular target: T1, LI-cadherin C-terminally tagged with …; assay: FRET or BRET; FRET competition: twofold excess of untagged LI-cadherin coexpressed with LI-CFP and LI-YFP in HEK293 cells; acceptor photobleaching; settings: partners not purified

LI-cadherin ECD, sequence (Q12864 23-787): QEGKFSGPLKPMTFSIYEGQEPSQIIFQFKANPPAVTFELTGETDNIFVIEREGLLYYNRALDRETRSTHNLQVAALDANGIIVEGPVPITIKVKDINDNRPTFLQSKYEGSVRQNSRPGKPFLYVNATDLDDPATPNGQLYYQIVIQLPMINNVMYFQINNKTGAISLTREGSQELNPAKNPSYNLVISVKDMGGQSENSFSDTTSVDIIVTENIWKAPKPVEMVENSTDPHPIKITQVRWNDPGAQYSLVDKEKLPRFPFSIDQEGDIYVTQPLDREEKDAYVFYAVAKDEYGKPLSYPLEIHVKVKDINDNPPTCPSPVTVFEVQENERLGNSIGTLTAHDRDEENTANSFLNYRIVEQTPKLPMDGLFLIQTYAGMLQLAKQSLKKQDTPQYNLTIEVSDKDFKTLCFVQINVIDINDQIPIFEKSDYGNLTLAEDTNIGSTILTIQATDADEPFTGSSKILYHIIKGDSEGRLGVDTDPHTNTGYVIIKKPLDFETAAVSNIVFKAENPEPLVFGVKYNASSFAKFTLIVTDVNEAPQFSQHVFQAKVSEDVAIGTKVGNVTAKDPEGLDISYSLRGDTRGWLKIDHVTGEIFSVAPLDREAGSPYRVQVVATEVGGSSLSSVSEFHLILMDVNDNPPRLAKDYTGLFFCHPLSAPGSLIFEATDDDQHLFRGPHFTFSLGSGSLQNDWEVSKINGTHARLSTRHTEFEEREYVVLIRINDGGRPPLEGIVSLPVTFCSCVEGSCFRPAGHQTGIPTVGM

Row | FRET efficiency of LI-CFP/LI-YFP with a twofold excess of untagged LI-cadherin [2] [%] | Molecule | Kd [1] [µM]
1 | – | LI-cadherin ECD (from UniProt Q12864) | 27
2 | 5.2 | untagged LI-cadherin (natural protein, UniProt Q9R100 26-827, looked up, LI-cadherin (cadherin-17), untagged wild type; The expression construct of the untagged protein is not described in the methods; also called LIwt; wild-type LI; source: HEK293, transfected, in living cells (twofold excess, coexpressed with LI-CFP and LI-YFP)) FSGPLKPMTFSIFEGQEPSQVIFQFKTNPPAVTFELTGETDGIFKIEKDGLLYHTRALDRETRAVHHLQLAALDSHGAIVDGPVPITIEVKDINDNRPTFLQSKYEGSVRQNSRPGKPFMYVNATDLDDPATPNGQLFYQIVIQLPQINDVMYFQIDSKTGAISLTPEGSQELDPVKNPSYNLVVSVKDMGGQSENSFSDTTYVDISIRENIWKAPEPVEIRENSTDPHPIKITQVQWNDPGAQYSLVNKEKLSPFPFSIDQEGNIYVTQALDREEKNSHVFFATAKDENGKPLAYPLEIYVKVIDINDNPPTCLSPVTVFEVQENEPLGNSIGIFEAHDMDEANNINSILKYKLVDQTPKVPSDGLFLIGEYEGKVQLSKQSLKKQDSPQYNLSIEVSDVDFKTLCYIQVNVIDINDQIPIFETSNYGSKTLSEDTAIGSTILIIQATDADEPFTGSSKILYKIVQGDTEGRLEVVTDPTTNAGYVKIKKPLDFETQPVSSIVFQAENPEPLVKGIEYNASSFASFELIVTDVNEVPVFPQRIFQANVSEDAAVGSRVGNVTARDPEGLTVSYSLKGNMRGWLKIDSVTGEIFSAAPLDRETESVYRVQVVATEVGGSSLSSTADFHLVLTDVNDNPPRLAKDYTGLFFCHPLSAPGSLIFEVTDDDQQSLRRPKFTFALGREGLQSDWEVSKINGTHARLSTRHTRFEEQVYNIPIRINDGGQPPMEGTVFLPVTFCQCVEGSCFRPAGRQDGIPTVGMAVGILLTTFLVIGIILAVVFIRMRKDKVENPQSPENKPLRS | –

— paper PMC3478510, “LI-cadherin cis-dimerizes in the plasma membrane Ca^2+ independently and forms highly dynamic trans-contacts” (Cellular and Molecular Life Sciences: CMLS, 2012)
